Source: paper doi:10.1101/2022.01.15.476311

Target: Toll-like receptor 2 (TLR2) purified protein (UniProt O60603)
Assay: BLI

Sequence of UniProt O60603 (O60603 21-588): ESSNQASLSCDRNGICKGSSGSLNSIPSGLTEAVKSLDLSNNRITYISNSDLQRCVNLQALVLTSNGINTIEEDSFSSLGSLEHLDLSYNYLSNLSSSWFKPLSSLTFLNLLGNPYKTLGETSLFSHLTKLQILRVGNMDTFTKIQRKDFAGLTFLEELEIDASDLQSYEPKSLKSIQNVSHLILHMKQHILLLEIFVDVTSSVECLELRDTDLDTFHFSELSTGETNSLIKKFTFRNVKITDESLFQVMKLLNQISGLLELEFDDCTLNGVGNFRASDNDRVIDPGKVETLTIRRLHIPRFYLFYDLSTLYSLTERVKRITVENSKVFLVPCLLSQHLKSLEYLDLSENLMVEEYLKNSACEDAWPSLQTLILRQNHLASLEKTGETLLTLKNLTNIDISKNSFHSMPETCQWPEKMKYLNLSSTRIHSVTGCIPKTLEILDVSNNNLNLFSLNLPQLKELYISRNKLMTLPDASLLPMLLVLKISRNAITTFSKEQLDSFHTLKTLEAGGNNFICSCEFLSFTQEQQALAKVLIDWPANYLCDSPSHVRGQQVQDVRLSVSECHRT

PAM3CSK4 (peptide) showed a Kd of 1670 nM.
